Measurements: publication PMC5465072 (2017)
Square brackets hold non-standard residues; d marks the D form. Ends that are not written are not given here. Tyr(3-NO2) = N[C@@H](Cc1ccc(O)c([N+](=O)[O-])c1)C(=O)O; Phe(4-NO2) = N[C@@H](Cc1ccc([N+](=O)[O-])cc1)C(=O)O; Tyr(3,5-Br2) = N[C@@H](Cc1cc(Br)c(O)c(Br)c1)C(=O)O; Phe(4-CN) = N#Cc1ccc(C[C@H](N)C(=O)O)cc1; Phe(4-Cl) = N[C@@H](Cc1ccc(Cl)cc1)C(=O)O; Phe(4-F) = N[C@@H](Cc1ccc(F)cc1)C(=O)O; hPhe = N[C@@H](CCc1ccccc1)C(=O)O; Phg = N[C@H](C(=O)O)c1ccccc1

T1: CMG2 38-218 (Homo sapiens, UniProt P58335)
T1 chain: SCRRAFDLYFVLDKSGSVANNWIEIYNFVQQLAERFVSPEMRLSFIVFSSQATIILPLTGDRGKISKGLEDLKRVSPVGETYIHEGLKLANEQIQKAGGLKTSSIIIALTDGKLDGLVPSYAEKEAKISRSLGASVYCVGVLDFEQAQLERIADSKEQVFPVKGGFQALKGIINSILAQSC


Target: T1, CMG2 38-218
Experiment: sandwich ELISA (competition with His6-PA 488-735)

Row | Binder | IC50 [µM]
1 | CLRPT | 153

Target: T1, CMG2 38-218
Experiment: microscale thermophoresis

Row | Binder | Kd [µM]
2 | CLR[dF]T [CLR(D-Phe)T] | 31
3 | CLR[Phe(4-Cl)]T [CLR(4-Cl-F)T] | 14
4 | CLR[Tyr(3,5-Br2)]T [CLR(3,5-dibromo-Y)T] | 60
5 | CLR[Phe(4-NO2)]T [CLR(4-nitro-F)T] | 36.2
6 | CLR[Phg]T [CLR(phenylglycine)T] | 59.6
7 | CLR[Phe(4-CN)]T [CLR(4-cyano-F)T] | 61.4
8 | CLR[Tyr(3-NO2)]T [CLR(3-nitro-Y)T] | 112
9 | CLR[hPhe]T [CLR(homophenylalanine)T] | 74
10 | CLR[Phe(4-F)]T [CLR(4-fluoro-F)T] | 49.9
